Source: the supplement of paper PMC11246515
± gives the standard deviation of the averaged measurements.

Assay: total protein half-life in vivo (active degradation + dilution); higher = more stable protein
[1] = E. coli NCM3722 delta-clpP, growth: N-lim chemostat, doubling time 6 h
[2] = E. coli NCM3722 delta-hslV, growth: N-lim chemostat, doubling time 6 h
[3] = E. coli NCM3722 delta-lon, growth: N-lim chemostat, doubling time 6 h
[4] = E. coli NCM3722 delta-smpB, growth: N-lim chemostat, doubling time 6 h
[5] = wild type E. coli NCM3722, growth: C-lim chemostat, doubling time 3 h
[6] = wild type E. coli NCM3722, growth: C-lim chemostat, doubling time 6 h
[7] = wild type E. coli NCM3722, growth: C-lim chemostat, doubling time 12 h
[8] = wild type E. coli NCM3722, growth: N-lim chemostat, doubling time 6 h
[9] = wild type E. coli NCM3722, growth: N-lim chemostat, doubling time 12 h
[10] = wild type E. coli NCM3722, growth: P-lim chemostat, doubling time 6 h
[11] = wild type E. coli NCM3722, growth: P-lim chemostat, doubling time 12 h
[12] = E. coli NCM3722 delta-clpP delta-lon delta-hslV, growth: N-lim chemostat, doubling time 6 h

Sequence	total protein half-life in vivo [1] [h]	total protein half-life in vivo [2] [h]	total protein half-life in vivo [3] [h]	total protein half-life in vivo [4] [h]	total protein half-life in vivo [5] [h]	total protein half-life in vivo [6] [h]	total protein half-life in vivo [7] [h]	total protein half-life in vivo [8] [h]	total protein half-life in vivo [9] [h]	total protein half-life in vivo [10] [h]	total protein half-life in vivo [11] [h]	total protein half-life in vivo [12] [h]
MQSERIYLVWAHPRHDSLTAHIADAIHQRAMERKIQVTELDLYRRNFNPVMTPEDEPDWKNMDKRYSPEVHQLYSELLEHDTLVVVFPLWWYSFPAMLKGYIDRVWNNGLAYGDGHKLPFNKVRWVALVGGDKESFVQMGWEKNISDYLKNMCSYLGIEDADVTFLCNTVVFDGEELHASYYQSLLSQVRDMVDAL	4.52 ± 0.47	4	4.84 ± 0.22	4.07 ± 0.28	2.98 ± 0.16	6.87 ± 1.5	9.75 ± 0.92	4.62 ± 0.12	7.48 ± 1	5.643 ± 0.052	11.5 ± 1.1	
MTNPQFAGHPFGTTVTAETLRNTFAPLTQWEDKYRQLIMLGKQLPALPDELKAQAKEIAGCENRVWLGYTVAENGKMHFFGDSEGRIVRGLLAVLLTAVEGKTAAELQAQSPLALFDELGLRAQLSASRSQGLNALSEAIIAATKQV [P0AGF2]	4.73 ± 0.56	4.9 ± 0.33	5.38 ± 0.38	4.87 ± 0.87	3.4 ± 0.066	5.18 ± 0.76	8.98 ± 0.8	4.504 ± 0.012	8.14 ± 0.94	5.64 ± 0.32	11.1 ± 0.35	4.97 ± 0.16
MSKLDLNALNELPKVDRILALAETNAELEKLDAEGRVAWALDNLPGEYVLSSSFGIQAAVSLHLVNQIRPDIPVILTDTGYLFPETYRFIDELTDKLKLNLKVYRATESAAWQEARYGKLWEQGVEGIEKYNDINKVEPMNRALKELNAQTWFAGLRREQSGSRANLPVLAIQRGVFKVLPIIDWDNRTIYQYLQKHGLKYHPLWDEGYLSVGDTHTTRKWEPGMAEEETRFFGLKRECGLHEG	4.21 ± 0.56	1.29 ± 0.27	1.64 ± 0.023	1.37 ± 0.087	2.11 ± 0.095	2.91 ± 0.58	4.05 ± 0.29	1.47 ± 0.077	1.721 ± 0.012	3.28 ± 0.37	6.15 ± 0.27	4.38 ± 0.8
MATGKSCSRWFAPLAALLMVVSLSGCFDKEGDQRKAFIDFLQNTVMRSGERLPTLTADQKKQFGPFVSDYAILYGYSQQVNQAMDSGLRPVVDSVNAIRVPQDYVTQSGPLREMNGSLGVLAQQLQNAKLQADAAHSALKQSDDLKPVFDQAFTKVVTTPADALQPLIPAAQTFTQQLVMVGDYIAQQGTQVSFVANGIQFPTSQQASEYNKLIAPLPAQHQAFNQAWTTAVTATQ [P0ADK0]		6.34 ± 0.47	6.34 ± 0.28	6.1 ± 0.9	3.007 ± 0.025	6.13 ± 0.24	13.5 ± 1.5	5.79 ± 0.17	12.5 ± 0.65	5.88 ± 0.16	12.5 ± 1.1	6.1 ± 0.091
MEFSFSPKRLVVAVAAALPLMASAADTPSTATARKGFAGYDHPNQYLVKPATTIADNMMPVMQHPAQDKETQQKLAELEKKTGKKPNVVVFLLDDVGWMDVGFNGGGVAVGNPTPDIDAVASQGLILTSAYSQPSSSPTRATILTGQYSIHHGILMPPMYGQPGGLQGLTTLPQLLHDQGYVTQAIGKWHMGENKESQPQNVGFDDFRGFNSVSDMYTEWRDVHVNPEVALSPDRSEYIKQLPFSKDDVHAVRGGEQQAIADITPKYMEDLDQRWMDYGVKFLDKMAKSDKPFFLYYGTRGCHFDNYPNAKYAGSSPARTSYGDCMVEMNDVFANLYKTLEKNGQLDNTLIVFTSDNGPEAEVPPHGRTPFRGAKGSTWEGGVRVPTFVYWKGMIQPRKSDGIVDLADLFPTALDLAGHPGAKVANLVPKTTFIDGVDQTSFFLGTNGQSNRKAEHYFLNGKLAAVRMDEFKYHVLIQQPYAYTQSGYQGGFTGTVMQTAGSSVFNLYTDPQESDSIGVRHIPMGVPLQTEMHAYMEILKKYPPRAQIKSD								3.56				
MPLSAQQLAAQKNLSYVLAEKLAQRILKGEYEPGTILPGEIELGEQFGVSRTAVREAVKTLTAKGMVLPRPRIGTRVMPQSNWNFLDQELLTWWMTEENFHQVIDHFLVMRICLEPQACLLAATVGTAEQKAHLNTLMAEMAALKENFRRERWIEVDMAWHEHIYEMSANPFLTSFASLFHSVYHTYFTSITSDTVIKLDLHQAIVDAIIQSDGDAAFKACQALLRSPDK	6.01	5.31	6.07 ± 0.2	5.77 ± 0.38	2.88	6.4 ± 1.1	12.2	3	10.5	4.72 ± 1.2	11.4 ± 0.35	4.46 ± 0.8
MNLQRFDDSTLIRIFALHELHRLKEHGLTRGALLDYHSRYKLVFLAHSQPEYRKLGPFVADIHQWQNLDDYYNQYRQRVVVLLSHPANPRDHTNVLMHVQGYFRPHIDSTERQQLAALIDSYRRGEQPLLAPLMRIKHYMALYPDAWLSGQRYFELWPRVINLRHSGVL	4.66 ± 0.34	4.914 ± 0.015	5.47 ± 0.14	4.55 ± 0.27		5.12	11.2	4.54 ± 0.59	7.5 ± 0.48	5.11 ± 0.081	12 ± 0.13	5.09 ± 0.47
MARARGRGRRDLKSEINIVPLLDVLLVLLLIFMATAPIITQSVEVDLPDATESQAVSSNDNPPVIVEVSGIGQYTVVVEKDRLERLPPEQVVAEVSSRFKANPKTVFLIGGAKDVPYDEIIKALNLLHSAGVKSVGLMTQPI [P0ABV6]	5.42 ± 0.13	6.44 ± 0.99	5.7 ± 0.25	5.74 ± 0.59	3.106 ± 0.028	5.686 ± 0.01	11.9 ± 0.7	5.73 ± 0.26	12.6 ± 0.73	5.45 ± 0.66	11.81 ± 0.036	
